Source: US20230075633A1 (SHANDONG BOAN BIOTECHNOLOGY, published 2023)
Where two headings read alike, the source gives them in different places.

T1: human CEA (human, UniProt P06731 35-702)
T1 sequence (looked up): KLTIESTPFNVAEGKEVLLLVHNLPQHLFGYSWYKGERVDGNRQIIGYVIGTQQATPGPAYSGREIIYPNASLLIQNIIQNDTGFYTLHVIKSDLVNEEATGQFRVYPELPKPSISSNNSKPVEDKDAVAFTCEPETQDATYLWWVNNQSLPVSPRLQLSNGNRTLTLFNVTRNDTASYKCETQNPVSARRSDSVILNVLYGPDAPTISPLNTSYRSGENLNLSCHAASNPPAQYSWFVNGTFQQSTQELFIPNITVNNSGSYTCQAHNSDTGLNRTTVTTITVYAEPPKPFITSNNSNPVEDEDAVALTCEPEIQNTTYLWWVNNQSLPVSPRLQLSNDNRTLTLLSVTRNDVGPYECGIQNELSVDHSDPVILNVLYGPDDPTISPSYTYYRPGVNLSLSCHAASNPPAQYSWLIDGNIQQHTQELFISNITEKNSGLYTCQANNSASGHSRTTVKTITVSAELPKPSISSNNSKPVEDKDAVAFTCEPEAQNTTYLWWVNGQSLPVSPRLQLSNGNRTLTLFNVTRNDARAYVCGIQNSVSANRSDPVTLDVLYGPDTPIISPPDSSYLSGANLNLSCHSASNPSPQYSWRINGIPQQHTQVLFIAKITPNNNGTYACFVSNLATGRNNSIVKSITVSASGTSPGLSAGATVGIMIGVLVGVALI

T2: Cynomolgus monkey CD3 protein (cynomolgus monkey, UniProt Q95LI5 22-117)
T2 sequence (looked up): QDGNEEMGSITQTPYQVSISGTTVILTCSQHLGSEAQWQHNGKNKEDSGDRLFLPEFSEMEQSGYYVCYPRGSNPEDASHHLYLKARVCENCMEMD


Tests used:
human CD3 [1] = target: T3, human CD3 (human, UniProt P07766 23-207); assay: cell-based or functional assay
human CD3 [2] = target: T3, human CD3; assay: cell-based or functional assay; remark: listed apart in the source
human CEA [3] = target: T1, human CEA; assay: cell-based or functional assay
human CEA [4] = target: T1, human CEA; assay: cell-based or functional assay; remark: listed apart in the source
[5] = target: T2, Cynomolgus monkey CD3 protein; assay: ELISA on cynomolgus monkey CD3 protein, curve fit

T3 sequence (P07766 23-207): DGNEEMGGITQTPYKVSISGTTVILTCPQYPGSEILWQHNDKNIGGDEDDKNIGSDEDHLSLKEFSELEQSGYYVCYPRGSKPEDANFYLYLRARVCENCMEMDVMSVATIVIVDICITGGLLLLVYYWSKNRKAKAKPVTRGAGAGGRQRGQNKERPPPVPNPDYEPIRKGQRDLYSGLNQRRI

Row | NFAT-luciferase in Jurkat cells: Bottom (human CD3 [1]) | NFAT-luciferase in Jurkat cells: LogEC50 (human CD3 [1]) | NFAT-luciferase in Jurkat cells: Span (human CD3 [1]) | NFAT-luciferase in Jurkat cells: Top (human CD3 [1]) | NFAT-luciferase in Jurkat cells: Bottom (human CD3 [2]) | NFAT-luciferase in Jurkat cells: LogEC50 (human CD3 [2]) | NFAT-luciferase in Jurkat cells: Span (human CD3 [2]) | NFAT-luciferase in Jurkat cells: Top (human CD3 [2]) | lysis of LS-174T cells by PBMC: Bottom (human CEA [3]) | lysis of LS-174T cells by PBMC: LogEC50 (human CEA [3]) | lysis of LS-174T cells by PBMC: Span (human CEA [3]) | lysis of LS-174T cells by PBMC: Top (human CEA [3]) | lysis of KATO III cells by PBMC: Bottom (human CEA [4]) | lysis of KATO III cells by PBMC: LogEC50 (human CEA [4]) | lysis of KATO III cells by PBMC: Span (human CEA [4]) | lysis of KATO III cells by PBMC: Top (human CEA [4]) | Bottom (best-fit) [5] | LogEC50 [5] | Span (best-fit) [5] | Top (best-fit) [5] | Binder
1 | 39.9 | -1.52 | 1280 | 1320 | -1040 | -0.58 | 121000 | 120000 | 13.8 | -2.69 | 91.7 | 106 | 60.1 | -1.85 | 53 | 113 | 0.0164 | -1.65 | 4.09 | 4.1 | CEA/CD3 parental BsAb (bispecific antibody, V domains shown, also called hT84.66/SP34 bispecific antibody; CEA/CD3 parental bispecific antibody; copies: 2 + 2 + 2 + 2) VH 1: EVQLVESGGGLVQPGGSLRLSCAASGFNIKDTYMHWVRQAPGKGLEWVARIDPAQGNTKYADSVKGRFTISADTSKNTAYLQMNSLRAEDTAVYYCAPFGYYVSDYAMAYWGQGTLVTVSS VL 1: DIQLTQSPSSLSASVGDRVTITCRAGESVDIFGVGFLHWYQQKPGKAPKLLIYRASNLESGVPSRFSGSGSRTDFTLTISSLQPEDFATYYCQQTNEDPYTFGQGTKVEIK VH 2: not shown VL 2: not shown
2 |  |  |  |  | 3450 | -0.0275 | 2670 | 6120 |  |  |  |  |  |  |  |  |  |  |  |  | CEA/CD3OPT1a3b2b2 (bispecific antibody) chain 1: EVQLVESGGGLVQPGGSLRLSCAASGFNIKDTYMHWVRQAPGKGLEWVARIDPAQGNTKYADSVKGRFTISADTSKNTAYLQMNSLRAEDTAVYYCAPFGYYVSDYAMAYWGQGTLVTVSS chain 2: DIQLTQSPSSLSASVGDRVTITCRAGESVDIFGVGFLHWYQQKPGKAPKLLIYRASNLESGVPSRFSGSGSRTDFTLTISSLQPEDFATYYCQQTNEDPYTFGQGTKVEIK chain 3: EVQLVESGGGLVKPGGSLKLSCAASGFTFSTYAMNWVRQAPGKGLEWVARIRSKYNNYATYFADSVKDRFTISRDDSKNTAYLQMNNLRTEDTAVYYCVRHGNWGNSYISYWAYWGQGTTVTVSSQSVLTQPPSVSAAPGQRVTISCSGSTGAVTSGYYPNWYQQLPGTAPRLLIGGTKFLAPGTPDRFSGSSKSTSAALAISGVQSEDEADYYCALWYSNRWVFGGGTKLTVLG
3 | 49.9 | -0.801 | 1150 | 1200 | 1570 | -0.0022 | 130000 | 132000 | 17.3 | -2.81 | 89.2 | 106 | 52.5 | -0.944 | 51.7 | 104 | 0.0666 | -1.32 | 4.02 | 4.09 | CEA/CD3OPT1a (bispecific antibody, V domains shown, Same format as m1; also called OPTSP34 1a; copies: 2 + 2 + 2 + 2) VH 1: EVQLVESGGGLVQPGGSLRLSCAASGFNIKDTYMHWVRQAPGKGLEWVARIDPAQGNTKYADSVKGRFTISADTSKNTAYLQMNSLRAEDTAVYYCAPFGYYVSDYAMAYWGQGTLVTVSS VL 1: DIQLTQSPSSLSASVGDRVTITCRAGESVDIFGVGFLHWYQQKPGKAPKLLIYRASNLESGVPSRFSGSGSRTDFTLTISSLQPEDFATYYCQQTNEDPYTFGQGTKVEIK VH 2: EVQLVESGGGLVKPGGSLKLSCAASGFTFSTYAMNWVRQAPGKGLEWVARIRSKYNNYATYYADSVKDRFTISRDDSKNTAYLQMNNLRTEDTAVYYCVRHGNFGNSYISYWAYWGQGTTVTVSS VL 2: not shown
4 | 88.9 | -2.09 | -30.4 | 58.5 |  |  |  |  |  |  |  |  |  |  |  |  |  |  |  |  | CEA/CD3OPT2 (bispecific antibody, V domains shown) VH 1: EVQLVESGGGLVQPGGSLRLSCAASGFNIKDTYMHWVRQAPGKGLEWVARIDPAQGNTKYADSVKGRFTISADTSKNTAYLQMNSLRAEDTAVYYCAPFGYYVSDYAMAYWGQGTLVTVSS VL 1: DIQLTQSPSSLSASVGDRVTITCRAGESVDIFGVGFLHWYQQKPGKAPKLLIYRASNLESGVPSRFSGSGSRTDFTLTISSLQPEDFATYYCQQTNEDPYTFGQGTKVEIK VH 2: EVQLVESGGGLVKPGGSLKLSCAASGFTFNKYAMNWVRQAPGKGLEWVARIRSNYNNYATTFADSVKDRFTISRDDSKNTAYLQMNNLRTEDTAVYYCVRHGNFGNSYISYWAYWGQGTTVTVSS VL 2: not shown
5 |  |  |  |  | 3100 | -0.27 | 10700 | 13800 | 11.3 | -1.92 | 93.6 | 105 | 63.8 | -0.332 | 34.6 | 98.5 | 0.00337 | -1.81 | 4.06 | 4.06 | CEA/CD3OPT1a3b2a (bispecific antibody, V domains shown, Same format as m1; also called OPT SP34 1a3b2a; copies: 2 + 2 + 2 + 2) VH 1: EVQLVESGGGLVQPGGSLRLSCAASGFNIKDTYMHWVRQAPGKGLEWVARIDPAQGNTKYADSVKGRFTISADTSKNTAYLQMNSLRAEDTAVYYCAPFGYYVSDYAMAYWGQGTLVTVSS VL 1: DIQLTQSPSSLSASVGDRVTITCRAGESVDIFGVGFLHWYQQKPGKAPKLLIYRASNLESGVPSRFSGSGSRTDFTLTISSLQPEDFATYYCQQTNEDPYTFGQGTKVEIK VH 2: EVQLVESGGGLVKPGGSLKLSCAASGFTFSTYAMNWVRQAPGKGLEWVARIRSNYNNYATYYADSVKDRFTISRDDSKNTAYLQMNNLRTEDTAVYYCVRHGNWGNSYISYWAYWGQGTTVTVSS VL 2: not shown
6 | 119 | -5.66 | -41.4 | 78 |  |  |  |  |  |  |  |  |  |  |  |  |  |  |  |  | CEA/CD3OPT3 (bispecific antibody, V domains shown) VH 1: EVQLVESGGGLVQPGGSLRLSCAASGFNIKDTYMHWVRQAPGKGLEWVARIDPAQGNTKYADSVKGRFTISADTSKNTAYLQMNSLRAEDTAVYYCAPFGYYVSDYAMAYWGQGTLVTVSS VL 1: DIQLTQSPSSLSASVGDRVTITCRAGESVDIFGVGFLHWYQQKPGKAPKLLIYRASNLESGVPSRFSGSGSRTDFTLTISSLQPEDFATYYCQQTNEDPYTFGQGTKVEIK VH 2: EVQLVESGGGLVKPGGSLKLSCAASGFTFNKYAMNWVRQAPGKGLEWVARIRSKYNNYATYYADSVKDRFTISRDDSKNTAYLQMNNLRTEDTAVYYCVRHGQWGNSYISYWAYWGQGTTVTVSS VL 2: not shown
7 |  |  |  |  | 1600 | -0.102 | 62800 | 64500 | 12.1 | -2.69 | 96.6 | 109 | 64.6 | -0.946 | 39.4 | 104 | 0.00304 | -1.84 | 4.03 | 4.03 | CEA/CD3OPT1a3b (bispecific antibody, V domains shown, Same format as m1; also called OPT SP34 1a3b; copies: 2 + 2 + 2 + 2) VH 1: EVQLVESGGGLVQPGGSLRLSCAASGFNIKDTYMHWVRQAPGKGLEWVARIDPAQGNTKYADSVKGRFTISADTSKNTAYLQMNSLRAEDTAVYYCAPFGYYVSDYAMAYWGQGTLVTVSS VL 1: DIQLTQSPSSLSASVGDRVTITCRAGESVDIFGVGFLHWYQQKPGKAPKLLIYRASNLESGVPSRFSGSGSRTDFTLTISSLQPEDFATYYCQQTNEDPYTFGQGTKVEIK VH 2: EVQLVESGGGLVKPGGSLKLSCAASGFTFSTYAMNWVRQAPGKGLEWVARIRSKYNNYATYYADSVKDRFTISRDDSKNTAYLQMNNLRTEDTAVYYCVRHGNWGNSYISYWAYWGQGTTVTVSS VL 2: not shown
8 | 52.8 | -1.66 | 1400 | 1460 |  |  |  |  | 13.1 | -2.86 | 92.2 | 105 | 54.7 | -2.21 | 48.1 | 103 | 0.00466 | -1.94 | 4.01 | 4.02 | CEA/CD3OPT3a (bispecific antibody, V domains shown, Same format as m1; copies: 2 + 2 + 2 + 2) VH 1: EVQLVESGGGLVQPGGSLRLSCAASGFNIKDTYMHWVRQAPGKGLEWVARIDPAQGNTKYADSVKGRFTISADTSKNTAYLQMNSLRAEDTAVYYCAPFGYYVSDYAMAYWGQGTLVTVSS VL 1: DIQLTQSPSSLSASVGDRVTITCRAGESVDIFGVGFLHWYQQKPGKAPKLLIYRASNLESGVPSRFSGSGSRTDFTLTISSLQPEDFATYYCQQTNEDPYTFGQGTKVEIK VH 2: not shown VL 2: not shown
